# pKd: −log10 of the molar value.
# Key:
# Experiment in all cases: BLI
# [1] = biological target: KYGQ:AAGA (45-48) Mut rDR5
# [2] = biological target: SGE:AAA (135-137) NS Mut rDR5
# [3] = biological target: Lexatumumab; conditions: Loading ID Biot-Lexa
# [4] = biological target: Tiga
# [5] = biological target: KMTR2
# [6] = biological target: AMG655; conditions: fit R^2 0.9925
substance,measurement,setting,value
Tigatuzumab,koff,[1],0.000153 s⁻¹
same,koff,[2],0.000625 s⁻¹
WT DR5 recombinant protein (IgG4-Fc tagged extracellular domain of human DR5) (from UniProt O14763-1) C103_R104insA,pKd,[3]; fit R^2 0.8916,9.58
same,kon,[3]; fit R^2 0.8916,2.14e+06 M⁻¹ s⁻¹
WT DR5 recombinant protein (IgG4-Fc tagged extracellular domain of human DR5) (from UniProt O14763-1) C103_R104insS,pKd,[3]; fit R^2 0.8774,9.67
same,kon,[3]; fit R^2 0.8774,1.5e+06 M⁻¹ s⁻¹
WT DR5 recombinant protein (IgG4-Fc tagged extracellular domain of human DR5) (from UniProt O14763-1) E98A; M99A,kon,[4]; fit R^2 0.9770,9.34e+06 M⁻¹ s⁻¹
WT DR5 recombinant protein (IgG4-Fc tagged extracellular domain of human DR5) (from UniProt O14763-1) K45A; Y46A; Q48A,koff,[4]; fit R^2 0.9860,0.000153 s⁻¹
same,kon,[4]; fit R^2 0.9860,1.72e+06 M⁻¹ s⁻¹
same,koff,[5]; fit R^2 0.9806,1e-07 s⁻¹
same,kon,[5]; fit R^2 0.9806,750000 M⁻¹ s⁻¹
WT DR5 recombinant protein (IgG4-Fc tagged extracellular domain of human DR5) (from UniProt O14763-1) S135A; G136A; E137A,koff,[6],6.82e-05 s⁻¹
same,kon,[6],539000 M⁻¹ s⁻¹
same,koff,[4]; fit R^2 0.9793,0.000625 s⁻¹
same,kon,[4]; fit R^2 0.9793,742000 M⁻¹ s⁻¹
same,koff,[5]; fit R^2 0.9964,2.01e-05 s⁻¹
same,kon,[5]; fit R^2 0.9964,791000 M⁻¹ s⁻¹
